Experimental data published in patent publication US20250101446A1, “METHOD FOR GENETIC TRANSFORMATION OF PLANT ORGANELLE GENOME AND USES THEREOF” (Solar Grants Biotechnology Inc., priority 2022, published 2025).

Tested on: LPS-stimulated PBMCs
Experiment: Cytokine secretion from LPS-stimulated PBMCs treated with plantakines (multiplex Luminex)
Assay type: cell-based, human
Method: The bioactivity of our plantakines IL-37b and IL-38 was assessed by monitoring the secretion of 11 cytokines, generally regarded as inflammatory markers, from PBMCs stimulated with an IA. Freshly isolated human PBMCs were subjected to various treatments-combinations of the IAs with the plantakines at different concentrations. Two different model IAs were used, either the bacterial lipopolysaccharides (LPS) or a lectin from Phaseolus vulgaris (phytohaemagglutinin, PHA); each of the IAs was applied onto cells separately, each IA was applied at two concentrations: […]; PHA at 5 and 10 μg/mL. Each IA at each concentration was applied in combination with one of the two plantakines, each of them at three different concentrations: 1, 10 and 100 ng/ml of the monomeric forms present in the purified extracts. Also included were treatments comprised of either IA at their lower concentrations, in combination with both plantakines at 10 ng/ml concentration in order to assess possible synergistic effects. Cells with only IAs applied represented the reference (positive controls for each concentration), cells without any treatment represented the basal level (negative control). The levels of eleven different pro-inflammatory cytokines secreted into the medium from the PBMCs-GM-SCF, IFNγ. TNFα, IL-1α, IL-1β, IL-6, IL-8, IL-22, IL12, IL-17 and IL-10 were compared between the treatments and the controls. We applied Generalized Estimating Equation (GEE) model for the statistical data analysis. This statistical approach allows for nested observations and was used to test the effects of the plantakines IL-37b and IL-38 and their dosage in the context of IA-stimulated PBMCs inflammatory responses.
After isolation, the PBMCs from each donor separately were counted, plated in equal numbers per well and stimulated for 24 h with the applied treatments. Control wells on the plate contained media only (as basal level controls), and LPS and PHA (as positive controls at their corresponding concentrations). After the 24 h treatments stimulation the PBMCs' culture supernatants were used in the multiplex Luminex platform-assisted analysis of the concentrations of the 11 secreted pro-inflammatory cytokines.
The whole blood from 5 random human donors was collected in ACD Vacutainer tubes and immediately processed for isolation of PBMCs by gradient density centrifugation using Lympholyte. […] 5% CO2 and >80% humidity. PBMCs were treated with one of two IAs at 2 concentrations each ([…]; PHA at 5 and 10 μg/mL) in combination with two test items (plant-produced IL-37b or IL-38) at three concentrations each (1, 10 and 100 ng/ml), based on the monomeric form amounts estimated with densitometry (ImageJ). Each treatment was tested in triplicates. Control wells contained media only (negative control, basal level of detection) and the examined IAs at both tested concentrations as the positive controls. The PBMCs were incubated for 24 hours after the stimulation for analysis of the levels of the secreted cytokines that were determined in the culture supernatant using a multiplex immunoassay (MAGPix®, Luminex), analytes were selected from the Milliplex panel HCYTOMAG-60K, sensitivity range of […]. All parameters of the Milliplex panel cytokines analysis using Luminex platform were validated (Millipore-Sigma).
Non-linear logarithm transformation was performed to address non-normality of distribution of Luminex-derived numeric data. Generalized Estimating Equation (GEE) method was used in the analysis of nested (correlated) structure of the data. Secreted inflammatory cytokine values were used as dependent variables and test item (plantakines) with dosage as independent predictors (factors). Separate analyses were conducted for each of the 11 monitored cytokines and each inflammatory agent/concentration combination. Analysis was performed using SPSS software version 27 using the level of significance 0.05 (p-values <0.05 are reported as statistically significant). […]

B1: plant-produced recombinant human IL-38, mature form C2-W152 with C-terminal 7xHIS tag (ligand)
chain: CSLPMARYYIIKYADQKALYTRDGQLLVGDPVADNCCAEKICILPNRGLARTKVPIFLGIQGGSRCLACVETEEGPSLQLEDVNIEELYKGGEEATRFTFFQSSSGSAFRLEAAAWPGWFLCGPAEPQQPVQLTKESEPSARTKFYFEQSWHHHHHHH
notes: range 2-152; also called rhIL-38; plantakine IL-38
1 ng/mL, LPS 150 pg/mL
  secreted GM-CSF level modulation vs positive control: −59.4%, p < 0.001
  secreted IL-1α level modulation vs positive control: −25.9%, p < 0.001
  secreted IL-1β level modulation vs positive control: −27.4%, p < 0.001
  secreted IL-6 level modulation vs positive control: −7.7%, p = 0.178
  secreted IL-8 level modulation vs positive control: 22.1%, p = 0.625
  secreted IL-10 level modulation vs positive control: −14.8%, p = 0.040
  secreted IL-12 level modulation vs positive control: 14.9%, p = 0.607
  secreted IL-17 level modulation vs positive control: −21.3%, p = 0.004
  secreted IL-22 level modulation vs positive control: −38.1%, p = 0.065
  secreted TNFα level modulation vs positive control: −36.9%, p = 0.035
1 ng/mL, LPS 300 pg/mL
  secreted GM-CSF level modulation vs positive control: −14.1%, p = 0.118
  secreted IFNγ level modulation vs positive control: −16.5%, p = 0.006
  secreted IL-1α level modulation vs positive control: −7.7%, p = 0.178
  secreted IL-1β level modulation vs positive control: −13.1%, p < 0.001
  secreted IL-6 level modulation vs positive control: −5.8%, p = 0.323
  secreted IL-10 level modulation vs positive control: 6.2%, p = 0.006
  secreted IL-12 level modulation vs positive control: 1.9%, p = 0.906
  secreted IL-17 level modulation vs positive control: −28.8%, p < 0.001
  secreted IL-22 level modulation vs positive control: −40.0%, p < 0.001
  secreted TNFα level modulation vs positive control: −49.3%, p = 0.184
10 ng/mL, LPS 150 pg/mL
  secreted GM-CSF level modulation vs positive control: 7.3%, p = 0.230
  secreted IFNγ level modulation vs positive control: −16.5%, p = 0.012
  secreted IL-1α level modulation vs positive control: −14.8%, p < 0.001
  secreted IL-1β level modulation vs positive control: −13.1%, p = 0.002
  secreted IL-6 level modulation vs positive control: 0.0%, p = 1.000
  secreted IL-8 level modulation vs positive control: 8.3%, p = 0.639
  secreted IL-10 level modulation vs positive control: −3.9%, p = 0.264
  secreted IL-12 level modulation vs positive control: 51.1%, p = 0.522
  secreted IL-17 level modulation vs positive control: −16.5%, p = 0.012
  secreted IL-22 level modulation vs positive control: −29.4%, p = 0.008
  secreted TNFα level modulation vs positive control: −44.0%, p = 0.116
10 ng/mL, LPS 300 pg/mL
  secreted GM-CSF level modulation vs positive control: 29.1%, p < 0.001
  secreted IFNγ level modulation vs positive control: −24.4%, p = 0.018
  secreted IL-1α level modulation vs positive control: 2.0%, p = 0.550
  secreted IL-1β level modulation vs positive control: −2.0%, p = 0,550
  secreted IL-6 level modulation vs positive control: 2.0%, p = 0.736
  secreted IL-8 level modulation vs positive control: −5.8%, p = 0.469
  secreted IL-10 level modulation vs positive control: 8.3%, p = 0.178
  secreted IL-12 level modulation vs positive control: 10.6%, p = 0.586
  secreted IL-17 level modulation vs positive control: −31.6%, p < 0.001
  secreted IL-22 level modulation vs positive control: −45.0%, p < 0.001
  secreted TNFα level modulation vs positive control: −40.5%, p = 0.311
100 ng/mL, LPS 150 pg/mL
  secreted GM-CSF level modulation vs positive control: 21.2%, p = 0.013
  secreted IFNγ level modulation vs positive control: −40.5%, p = 0.008
  secreted IL-1α level modulation vs positive control: −3.9%, p = 0.380
  secreted IL-1β level modulation vs positive control: −13.1%, p = 0.002
  secreted IL-6 level modulation vs positive control: 0.0%, p = 1.000
  secreted IL-8 level modulation vs positive control: −9.5%, p = 0.077
  secreted IL-10 level modulation vs positive control: −30.2%, p < 0.001
  secreted IL-12 level modulation vs positive control: 17.2%, p = 0.544
  secreted IL-17 level modulation vs positive control: −24.4%, p = 0.025
  secreted IL-22 level modulation vs positive control: −23.7%, p = 0.241
  secreted TNFα level modulation vs positive control: −34.3%, p = 0.232
100 ng/mL, LPS 300 pg/mL
  secreted GM-CSF level modulation vs positive control: 88.8%, p < 0.001
  secreted IFNγ level modulation vs positive control: −21.3%, p < 0.001
  secreted IL-1α level modulation vs positive control: 6.2%, p = 0.188
  secreted IL-1β level modulation vs positive control: 2.0%, p = 0.648
  secreted IL-6 level modulation vs positive control: 0.0%, p = 1.000
  secreted IL-8 level modulation vs positive control: 46.2%, p = 0.500
  secreted IL-10 level modulation vs positive control: −28.8%, p < 0.001
  secreted IL-12 level modulation vs positive control: 17.4%, p = 0.271
  secreted IL-17 level modulation vs positive control: −30.2%, p < 0.001
  secreted IL-22 level modulation vs positive control: −31.8%, p = 0.003
  secreted TNFα level modulation vs positive control: −13.1%, p = 0.581
LPS 150 pg/mL
  Decreased secretion: number of treatments with statistically significant modulation: 16
  Increased secretion: number of treatments with statistically significant modulation: 1
LPS 300 pg/mL
  Decreased secretion: number of treatments with statistically significant modulation: 12
  Increased secretion: number of treatments with statistically significant modulation: 2
